{"source": "patent US20220098265A1", "about": "(MEDIMMUNE LIMITED, priority 2012, published 2022)", "binders": {"B1": {"name": "g728 (peptide)", "peptide": "HSQGTFTSDYSK([γGlu-Palmitoyl])YLDSRRAQDFVQWLVAGG-NH2", "modifications": "N-terminus assumed", "SMILES": "CCCCCCCCCCCCCCCC(=O)N[C@@H](CCC(=O)NCCCC[C@H](NC(=O)[C@H](CO)NC(=O)[C@H](Cc1ccc(O)cc1)NC(=O)[C@H](CC(=O)O)NC(=O)[C@H](CO)NC(=O)[C@@H](NC(=O)[C@H](Cc1ccccc1)NC(=O)[C@@H](NC(=O)CNC(=O)[C@H](CCC(N)=O)NC(=O)[C@H](CO)NC(=O)[C@@H](N)Cc1c[nH]cn1)[C@@H](C)O)[C@@H](C)O)C(=O)N[C@@H](Cc1ccc(O)cc1)C(=O)N[C@@H](CC(C)C)C(=O)N[C@@H](CC(=O)O)C(=O)N[C@@H](CO)C(=O)N[C@@H](CCCNC(=N)N)C(=O)N[C@@H](CCCNC(=N)N)C(=O)N[C@@H](C)C(=O)N[C@@H](CCC(N)=O)C(=O)N[C@@H](CC(=O)O)C(=O)N[C@@H](Cc1ccccc1)C(=O)N[C@H](C(=O)N[C@@H](CCC(N)=O)C(=O)N[C@@H](Cc1c[nH]c2ccccc12)C(=O)N[C@@H](CC(C)C)C(=O)N[C@H](C(=O)N[C@@H](C)C(=O)NCC(=O)NCC(N)=O)C(C)C)C(C)C)C(=O)O"}, "B2": {"name": "g325 (peptide)", "peptide": "HSQGTFTSDYSKYLDSRRAQDFVQWLVAGGGGGGK-NH2"}, "B3": {"name": "g326 (peptide)", "peptide": "HSQGTFTSDYSKYLDSRRAQDFVQWLVAGGGGGGK(Palmitoyl)-NH2", "modifications": "N-terminus assumed", "SMILES": "CCCCCCCCCCCCCCCC(=O)NCCCC[C@H](NC(=O)CNC(=O)CNC(=O)CNC(=O)CNC(=O)CNC(=O)CNC(=O)[C@H](C)NC(=O)[C@@H](NC(=O)[C@H](CC(C)C)NC(=O)[C@H](Cc1c[nH]c2ccccc12)NC(=O)[C@H](CCC(N)=O)NC(=O)[C@@H](NC(=O)[C@H](Cc1ccccc1)NC(=O)[C@H](CC(=O)O)NC(=O)[C@H](CCC(N)=O)NC(=O)[C@H](C)NC(=O)[C@H](CCCNC(=N)N)NC(=O)[C@H](CCCNC(=N)N)NC(=O)[C@H](CO)NC(=O)[C@H](CC(=O)O)NC(=O)[C@H](CC(C)C)NC(=O)[C@H](Cc1ccc(O)cc1)NC(=O)[C@H](CCCCN)NC(=O)[C@H](CO)NC(=O)[C@H](Cc1ccc(O)cc1)NC(=O)[C@H](CC(=O)O)NC(=O)[C@H](CO)NC(=O)[C@@H](NC(=O)[C@H](Cc1ccccc1)NC(=O)[C@@H](NC(=O)CNC(=O)[C@H](CCC(N)=O)NC(=O)[C@H](CO)NC(=O)[C@@H](N)Cc1c[nH]cn1)[C@@H](C)O)[C@@H](C)O)C(C)C)C(C)C)C(N)=O"}, "B4": {"name": "g747 (peptide)", "peptide": "HSQGTFTSDYSKYLDSRRAQDFVQWLEAGGK([γGlu-Palmitoyl])-NH2", "modifications": "N-terminus assumed", "SMILES": "CCCCCCCCCCCCCCCC(=O)N[C@@H](CCC(=O)NCCCC[C@H](NC(=O)CNC(=O)CNC(=O)[C@H](C)NC(=O)[C@H](CCC(=O)O)NC(=O)[C@H](CC(C)C)NC(=O)[C@H](Cc1c[nH]c2ccccc12)NC(=O)[C@H](CCC(N)=O)NC(=O)[C@@H](NC(=O)[C@H](Cc1ccccc1)NC(=O)[C@H](CC(=O)O)NC(=O)[C@H](CCC(N)=O)NC(=O)[C@H](C)NC(=O)[C@H](CCCNC(=N)N)NC(=O)[C@H](CCCNC(=N)N)NC(=O)[C@H](CO)NC(=O)[C@H](CC(=O)O)NC(=O)[C@H](CC(C)C)NC(=O)[C@H](Cc1ccc(O)cc1)NC(=O)[C@H](CCCCN)NC(=O)[C@H](CO)NC(=O)[C@H](Cc1ccc(O)cc1)NC(=O)[C@H](CC(=O)O)NC(=O)[C@H](CO)NC(=O)[C@@H](NC(=O)[C@H](Cc1ccccc1)NC(=O)[C@@H](NC(=O)CNC(=O)[C@H](CCC(N)=O)NC(=O)[C@H](CO)NC(=O)[C@@H](N)Cc1c[nH]cn1)[C@@H](C)O)[C@@H](C)O)C(C)C)C(N)=O)C(=O)O"}, "B5": {"name": "g402 (peptide)", "peptide": "HSQGTFTSDYSKYLDSRRAQDFVQWLVAGGSGSGSG-NH2"}, "B6": {"name": "g319 (peptide)", "peptide": "HSQGTFTSDYSKYLDSRRAQDFVQWLVAGGPSSGAPPPSK-NH2"}, "B7": {"name": "g701 (peptide)", "peptide": "HSQGTFTSDYSK([γGlu-Palmitoyl])YLDSRRAQDFVQWLERGG-NH2", "modifications": "N-terminus assumed", "SMILES": "CCCCCCCCCCCCCCCC(=O)N[C@@H](CCC(=O)NCCCC[C@H](NC(=O)[C@H](CO)NC(=O)[C@H](Cc1ccc(O)cc1)NC(=O)[C@H](CC(=O)O)NC(=O)[C@H](CO)NC(=O)[C@@H](NC(=O)[C@H](Cc1ccccc1)NC(=O)[C@@H](NC(=O)CNC(=O)[C@H](CCC(N)=O)NC(=O)[C@H](CO)NC(=O)[C@@H](N)Cc1c[nH]cn1)[C@@H](C)O)[C@@H](C)O)C(=O)N[C@@H](Cc1ccc(O)cc1)C(=O)N[C@@H](CC(C)C)C(=O)N[C@@H](CC(=O)O)C(=O)N[C@@H](CO)C(=O)N[C@@H](CCCNC(=N)N)C(=O)N[C@@H](CCCNC(=N)N)C(=O)N[C@@H](C)C(=O)N[C@@H](CCC(N)=O)C(=O)N[C@@H](CC(=O)O)C(=O)N[C@@H](Cc1ccccc1)C(=O)N[C@H](C(=O)N[C@@H](CCC(N)=O)C(=O)N[C@@H](Cc1c[nH]c2ccccc12)C(=O)N[C@@H](CC(C)C)C(=O)N[C@@H](CCC(=O)O)C(=O)N[C@@H](CCCNC(=N)N)C(=O)NCC(=O)NCC(N)=O)C(C)C)C(=O)O"}, "B8": {"name": "g840 (peptide)", "peptide": "HSQGTFTSDYSKYLDSRRAQDFVQWLEAGG-NH2"}, "B9": {"name": "g318 (peptide)", "peptide": "HSQGTFTSDYSKYLDSRRAQDFVQWLVAGGSSGGSSK(Palmitoyl)-NH2", "modifications": "N-terminus assumed", "SMILES": "CCCCCCCCCCCCCCCC(=O)NCCCC[C@H](NC(=O)[C@H](CO)NC(=O)[C@H](CO)NC(=O)CNC(=O)CNC(=O)[C@H](CO)NC(=O)[C@H](CO)NC(=O)CNC(=O)CNC(=O)[C@H](C)NC(=O)[C@@H](NC(=O)[C@H](CC(C)C)NC(=O)[C@H](Cc1c[nH]c2ccccc12)NC(=O)[C@H](CCC(N)=O)NC(=O)[C@@H](NC(=O)[C@H](Cc1ccccc1)NC(=O)[C@H](CC(=O)O)NC(=O)[C@H](CCC(N)=O)NC(=O)[C@H](C)NC(=O)[C@H](CCCNC(=N)N)NC(=O)[C@H](CCCNC(=N)N)NC(=O)[C@H](CO)NC(=O)[C@H](CC(=O)O)NC(=O)[C@H](CC(C)C)NC(=O)[C@H](Cc1ccc(O)cc1)NC(=O)[C@H](CCCCN)NC(=O)[C@H](CO)NC(=O)[C@H](Cc1ccc(O)cc1)NC(=O)[C@H](CC(=O)O)NC(=O)[C@H](CO)NC(=O)[C@@H](NC(=O)[C@H](Cc1ccccc1)NC(=O)[C@@H](NC(=O)CNC(=O)[C@H](CCC(N)=O)NC(=O)[C@H](CO)NC(=O)[C@@H](N)Cc1c[nH]cn1)[C@@H](C)O)[C@@H](C)O)C(C)C)C(C)C)C(N)=O"}, "B10": {"name": "g315 (peptide)", "peptide": "HSQGTFTSDYSKYLDSRRAQDFVQWLVAGGGGGG-NH2"}, "B11": {"name": "g316 (peptide)", "peptide": "HSQGTFTSDYSKYLDSRRAQDFVQWLVAGGSSGGSS-NH2"}, "B12": {"name": "g320 (peptide)", "peptide": "HSQGTFTSDYSKYLDSRRAQDFVQWLVAGGPSSGAPPPSK(Palmitoyl)-NH2"}, "B13": {"name": "g702 (peptide)", "peptide": "HSQGTFTSDYSK([γGlu-Palmitoyl])YLDSRRAQDFVQWLVAGG-NH2", "modifications": "N-terminus assumed", "SMILES": "CCCCCCCCCCCCCCCC(=O)N[C@@H](CCC(=O)NCCCC[C@H](NC(=O)[C@H](CO)NC(=O)[C@H](Cc1ccc(O)cc1)NC(=O)[C@H](CC(=O)O)NC(=O)[C@H](CO)NC(=O)[C@@H](NC(=O)[C@H](Cc1ccccc1)NC(=O)[C@@H](NC(=O)CNC(=O)[C@H](CCC(N)=O)NC(=O)[C@H](CO)NC(=O)[C@@H](N)Cc1c[nH]cn1)[C@@H](C)O)[C@@H](C)O)C(=O)N[C@@H](Cc1ccc(O)cc1)C(=O)N[C@@H](CC(C)C)C(=O)N[C@@H](CC(=O)O)C(=O)N[C@@H](CO)C(=O)N[C@@H](CCCNC(=N)N)C(=O)N[C@@H](CCCNC(=N)N)C(=O)N[C@@H](C)C(=O)N[C@@H](CCC(N)=O)C(=O)N[C@@H](CC(=O)O)C(=O)N[C@@H](Cc1ccccc1)C(=O)N[C@H](C(=O)N[C@@H](CCC(N)=O)C(=O)N[C@@H](Cc1c[nH]c2ccccc12)C(=O)N[C@@H](CC(C)C)C(=O)N[C@H](C(=O)N[C@@H](C)C(=O)NCC(=O)NCC(N)=O)C(C)C)C(C)C)C(=O)O"}, "B14": {"name": "g317 (peptide)", "peptide": "HSQGTFTSDYSKYLDSRRAQDFVQWLVAGGSSGGSSK-NH2"}}, "note": "Numbered stars: 1 amine (or outer) side, 2 acyl side, 3 side chain; on linkers, the order of the positions; unused ones are H or OH. Side chains are listed from the residue outwards. Ends that are not written are not given here. * marks the point of attachment. γGlu = O=C(O)[C@H](CCC(=O)[*:2])N[*:1]; Palmitoyl = CCCCCCCCCCCCCCCC(=O)*", "data": [{"biological_target": "human glucagon receptor (human, UniProt P47871 26-477)", "sequence (P47871 26-477)": "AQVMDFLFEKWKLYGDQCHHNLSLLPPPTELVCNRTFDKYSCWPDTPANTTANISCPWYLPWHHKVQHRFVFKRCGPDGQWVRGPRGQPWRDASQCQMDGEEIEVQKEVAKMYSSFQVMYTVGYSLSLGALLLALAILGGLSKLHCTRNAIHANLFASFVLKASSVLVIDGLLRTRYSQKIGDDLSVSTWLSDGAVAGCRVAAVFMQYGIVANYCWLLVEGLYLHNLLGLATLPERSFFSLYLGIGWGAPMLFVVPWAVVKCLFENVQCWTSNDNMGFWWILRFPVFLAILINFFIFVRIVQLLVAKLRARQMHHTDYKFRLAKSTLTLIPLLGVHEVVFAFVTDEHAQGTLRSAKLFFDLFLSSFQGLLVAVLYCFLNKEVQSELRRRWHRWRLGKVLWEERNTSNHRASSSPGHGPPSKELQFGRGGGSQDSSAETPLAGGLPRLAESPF", "experiment": "cell-based or functional assay", "units": {"cAMP EC50 (assay 1)": "nM"}, "values": [{"binder": "B1", "cAMP EC50 (assay 1)": 2.44}, {"binder": "B2", "cAMP EC50 (assay 1)": 0.0103}, {"binder": "B3", "cAMP EC50 (assay 1)": 0.00282}, {"binder": "B4", "cAMP EC50 (assay 1)": 0.0942}, {"binder": "B5", "cAMP EC50 (assay 1)": 0.0596}, {"binder": "B6", "cAMP EC50 (assay 1)": 0.0104}, {"binder": "B7", "cAMP EC50 (assay 1)": 3.83}, {"binder": "B8", "cAMP EC50 (assay 1)": 0.0053}, {"binder": "B9", "cAMP EC50 (assay 1)": 9.04}, {"binder": "B10", "cAMP EC50 (assay 1)": 0.00504}, {"binder": "B11", "cAMP EC50 (assay 1)": 0.0106}, {"binder": "B12", "cAMP EC50 (assay 1)": 0.0032}, {"binder": "B13", "cAMP EC50 (assay 1)": 1.49}]}, {"biological_target": "T1, human glucose-dependent insulinotropic peptide (gastric inhibitory polypeptide) receptor (human, UniProt P48546 22-466)", "T1 sequence (looked up)": "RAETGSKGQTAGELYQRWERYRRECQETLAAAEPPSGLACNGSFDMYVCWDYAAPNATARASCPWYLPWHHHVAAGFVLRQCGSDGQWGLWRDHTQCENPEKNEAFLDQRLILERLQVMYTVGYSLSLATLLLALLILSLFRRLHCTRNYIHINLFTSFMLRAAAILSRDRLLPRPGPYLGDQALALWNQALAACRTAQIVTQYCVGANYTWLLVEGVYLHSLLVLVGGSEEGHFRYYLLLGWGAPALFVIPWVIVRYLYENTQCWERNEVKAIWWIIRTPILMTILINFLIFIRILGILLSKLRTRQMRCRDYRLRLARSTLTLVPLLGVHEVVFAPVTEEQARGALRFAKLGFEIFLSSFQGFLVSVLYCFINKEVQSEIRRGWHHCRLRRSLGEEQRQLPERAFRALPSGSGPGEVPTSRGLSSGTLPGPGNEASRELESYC", "experiment": "cell-based or functional assay", "units": {"cAMP EC50 (assay 1)": "nM"}, "values": [{"binder": "B1", "cAMP EC50 (assay 1)": 395}, {"binder": "B3", "cAMP EC50 (assay 1)": 12.6}, {"binder": "B4", "cAMP EC50 (assay 1)": 1040}, {"binder": "B8", "cAMP EC50 (assay 1)": 102}, {"binder": "B10", "cAMP EC50 (assay 1)": 19.7}, {"binder": "B11", "cAMP EC50 (assay 1)": 3.65}, {"binder": "B12", "cAMP EC50 (assay 1)": 1.01}]}, {"biological_target": "human GLP-1 receptor (human, UniProt P43220 24-463)", "experiment": "cell-based or functional assay", "units": {"cAMP EC50 (assay 1)": "nM"}, "values": [{"binder": "B2", "cAMP EC50 (assay 1)": 0.0261}, {"binder": "B3", "cAMP EC50 (assay 1)": 0.0247}, {"binder": "B4", "cAMP EC50 (assay 1)": 3.16}, {"binder": "B5", "cAMP EC50 (assay 1)": 0.0857}, {"binder": "B6", "cAMP EC50 (assay 1)": 0.0361}, {"binder": "B7", "cAMP EC50 (assay 1)": 7.4}, {"binder": "B8", "cAMP EC50 (assay 1)": 0.145}, {"binder": "B9", "cAMP EC50 (assay 1)": 1.14}, {"binder": "B10", "cAMP EC50 (assay 1)": 0.0273}, {"binder": "B11", "cAMP EC50 (assay 1)": 0.0314}, {"binder": "B12", "cAMP EC50 (assay 1)": 0.00938}, {"binder": "B14", "cAMP EC50 (assay 1)": 2.63}]}]}
